Columns and labels:
[1] = test system: HEK-OX1R cells expressing recombinant OX1R; test: Apoptosis in HEK-OX1R cells (annexin V-PE binding, Guava nexin kit); format: cell-based, human
HT-29 cells = test: Growth of tumors from xenografted human HT-29 cells in nude mice; format: in vivo; settings: ip, 2 injections/week, Day 43
Experimental: FIG. 8: Effect of inoculation of orexin-A and C2 antibody on the growth of tumors developed by xenografted human HT-29 cells in nude mice. Colon adenocarcinoma derived cells, HT-29, were inoculated in the flank of nude mice at day 0. Mice were injected at day 1 (2 injections/week) intraperitoneally with 100 μl of orexin-A solution (1.4 μmoles of orexin-A/Kg (white circles)) or with 100 μl of C2 antibody solution (0.065 μmoles/Kg (black triangles) or 0.02 μmoles/Kg (white triangles)) or with 100 μl of PBS (black circles) for control. The inventors have tested the ability of C2 antibody to inhibit the tumor development of xenografted nude mice with the human colon adenocarcinoma cell line, HT-29. After subcutaneous injection of 1.5×10^6 HT-29 cells in mice, animals were treated by 2 intraperitoneal (ip) injection/week of Orexin-A (100 μg/injection corresponding to 1.4 μmoles of orexin-A/Kg) or two doses of C2 antibody (200 μg/injection or 50 μg/injection corresponding to 0.065 μmoles/Kg and 0.02 μmoles/Kg, respectively). Control was determined by ip injection of 100 μl of PBS. The experiment was conducted during 45 days and the tumor volume was estimated by measuring the short and long axes of developedtumors each ⅔ days.

[2] = test system: CHO cells lines transfected with OX1R of mouse; test: Cross-reaction: cells transfected with mouse OX1R; format: cell-based; settings: 0.1 μM, 48 h
AsPC-1 cells = test: Cell growth of pancreas cancer cell line AsPC-1; format: cell-based; settings: 0.1 μM, 48 h
Experimental: (§1) Cells were treated for 48 h with 0.1 μM of each compound and then cells were counted. Results were expressed as the percentage of untreated cell number (Control).
(§2) We have tested the ability of antibodies to inhibit the cellular growth in cancer cell lines derived from colon cancer (SW48, LoVo and HCT-116 cells) and pancreas cancer (AsPC-1 cells). […] D4 and H7 have a weak effect. […] As previously described (see above) orexins are able to induce a mitochondrial apoptosis in cancer cell lines. We test the ability of antibodies to induce apoptosis in HEK-OX1R cells and colonic cancer cell line LoVo. […] This effect was dose-dependent. Indeed when HEK-OX1R cells were treated with 0.01 μM of C2 antibody, cell apoptosis was only of 6±0.7% of total cells.

LoVo cells = test: Cell growth of colon cancer cell line LoVo; format: cell-based; settings: 0.1 μM, 48 h
Experimental: as §1, §2

[3] = test system: CHO cells lines transfected with OX1R of rat; test: Cross-reaction: cells transfected with rat OX1R; format: cell-based; settings: 0.1 μM, 48 h
SW48 cells = test: Cell growth of colon cancer cell line SW48; format: cell-based; settings: 0.1 μM, 48 h
Experimental: as §1, §2

LoVo cancer cell line = test: Apoptosis in LoVo cancer cell line; format: cell-based
Source text: as §2

[4] = test system: HEK-OX1R cells expressing recombinant OX1R; test: Cell growth of HEK-OX1R cells (cell counting); format: cell-based, human; settings: 0.1 μM, 48 h
[5] = 100 μg/injection (1.4 μmoles/Kg)
[6] = 200 μg/injection (0.065 μmoles/Kg)
[7] = low dose, 50 μg/injection (0.02 μmoles/Kg)

O=S(=O)(O)c1ccc2cc(N=Nc3cc(S(=O)(=O)O)c4cccnc4c3O)ccc2c1 [NSC-87877, reference compound]
effect of SHP-2 inhibitor on orexin-induced apoptosis ([1]; NSC-87877 50 μM): blocks orexin-induced apoptosis

Orexin-A (QPLPDCCRQKTCSCRLYELLHGAGNHAAGILTL) [orexin A, a 33 amino acid neuropeptide, native OX1R ligand, reference compound]
inhibition of tumor growth (HT-29 cells; [5]): about 65%
tumor volume (HT-29 cells; [5]): ~570±100 mm^3

B1: C2: human monoclonal anti-OX1R antibody from phage display; VH SEQ ID NO:1, VL SEQ ID NO:2 (antibody, V domains shown)
VH: EVQLVESGGSLVKPGGSLRLSCAASGFTFSNSYMNWVRQAPGKGLEWISSIYGSSRYIDYADFVKGRFTISRDNATNSLYLQMNSLRAEDTAVYYCVRSSSYYGSGMDVWGRGTLVTVSS
VL: QSVLTQPASVSGSPGQSITISCAGTSSDVGGYGSVSWYQQHPGKAPKLMIYYDSYRPSGVSNRFSGSKSGNTASLTISGLQAEDEADYYCSSNTNSSTRVFGGGTKLAVLG
modifications: Synthetic VH sequence of C2; Synthetic VL sequence of C2
promotion of apoptosis of cells transfected with mouse OX1R [2]: able to promote apotosis
inhibition of cell growth in AsPC-1 cells (AsPC-1 cells): cell growth inhibition similar to OxB effect
apoptosis in HEK-OX1R cells, % of total cells ([1]; 0.01 μM): 6±0.7%
apoptosis in HEK-OX1R cells, % of total cells ([1]; 0.1 μM, 48 h): 16±2%
apoptosis and growth inhibition in the presence of SHP inhibitor ([1]; with NSC 87877): totally abolished
inhibition of cell growth in LoVo cells (LoVo cells): inhibit the cell growth in LoVo cells similarly to OxB
promotion of apoptosis of cells transfected with rat OX1R [3]: able to promote apotosis
reduction of tumor development (HT-29 cells; [6]): about 60%
tumor volume (HT-29 cells; [6]): ~650±98 mm^3
inhibition of tumor growth (HT-29 cells; [7]): 45%
tumor volume (HT-29 cells; [7]): ~885±130 mm^3
inhibition of cell growth in SW48 cells (SW48 cells): inhibit the cell growth in SW48 cells similarly to OxB
apoptotic response in LoVo cancer cell line (LoVo cancer cell line; 0.01 μM): strongly reduce the apoptotic response
induction of apoptosis in LoVo cancer cell line (LoVo cancer cell line; 0.1 μM, 48 h): able to induce apoptosis
reduction of HEK-OX1R cell number ([4]; versus untreated cells): ~37±3%
inhibition of HEK-OX1R cellular growth in the presence of SHP inhibitor ([4]; with 50 μM NSC 87877): totally reversed

Reference: US10758615B2, “Human monoclonal antibodies against orexin receptor type 1” (INSERM (INSTITUT NATIONAL DE LA SANTE ET DE LA RECHERCHE …, priority 2015, dated 2020)
